For this assay, the target named is BlaC P107T (Mycobacterium tuberculosis). Kind of assay: crystal structure; sitting-drop vapor diffusion at 20°C, protein 10 mg/mL in 100 mM sodium phosphate buffer pH 6.4; four molecules in the asymmetric unit.

For the substance BlaC P107T (enzyme), the stoichiometry N (as a rule, the number of molecules, sites or subunits per partner or assembly) is 2.

The values above are taken from article PMC10966351.
